Laboratory results reported in paper PMC3326311 (Nucleic Acids Research, 2011).

B1: HerA helicase (Sulfolobus solfataricus), untagged (enzyme, Sulfolobus solfataricus P2, UniProt Q97WG8 1-500, looked up)
chain: MIIGYVIGQATTQEALILAERPVRLGTYVVLEYDNVKALGLITNVTRGSPMLDDNMNDIEIVQRLKQFNNSIPVYTKAKVKMLCDMNNHFLMPDIPPFAGTPAREAEDEELKSIYSQDGQIRIGSLIGKNVEVKLNINSFARHLAILAATGSGKSNTVAVLSQRISELGGSVLIFDYHGEYYDSDIKNLNRIEPKLNPLYMTPREFSTLLEIRENAIIQYRILRRAFIKVTNGIREKLKEGQIPFSTLNSQFYELMKDELETQGNSDKKSSAKDEVLNKFEEFMDRYSNVIDLTSSDIIEKVKRGKVNVVSLTQLDEDSMDAVVSHYLRRILDSRKDFKRSKNSGLKFPIIAVIEEAHVFLSKNENTLTKYWASRIAREGRKFGVGLTIVSQRPKGLDENILSQMTNKIILKIIEPTDKKYILESSDNLSEDLAEQLSSLDVGEAIIIGKIVKLPAVVKIDMFEGKLLGSDPDMIGEWKKVEESEKIAKGFADFGTEIGD

How the values were obtained:
crystal structure = target: the molecule itself; test: crystal structure
SEC = target: the molecule itself; test: SEC
[1] = target: B1; test: SEC

Binder | stoichiometry N (SEC) | other results
NurA nuclease (Sulfolobus solfataricus), untagged (enzyme, Sulfolobus solfataricus P2) MIRKIYDKLVESHNEIKNQIYNIANYLKQEIQDKVNEYWNEYVINHEQSETCKFVAIDGGSFGRPMRIGIVYAVGAESVIGDNKGVKTLSEDGQIGIFKPGNDAQERISLLMEALELSLALRDGSKGDYILMDGSLSKKIGNKVDIQQFSDEELKLIRNVDLNGIISIKDERKMRDLLMLLNQFLVSKIIEEYDGNVLWISKVSRGRDLFGTDYPDITVLELFTEKRGFSKLIIKNIDIEKISEIPEIEVLRKMEYTTFYTRLDNGKRVIRVDIVGRVDEKIVKEIMDRLSGVSIKGYPFPLLKAHMDVRFSAMDREKIIKLVGSKLHKDIEWWPSQFY |  | stoichiometry N (crystal structure): 2
NurA F300E (enzyme, Sulfolobus solfataricus P2) MIRKIYDKLVESHNEIKNQIYNIANYLKQEIQDKVNEYWNEYVINHEQSETCKFVAIDGGSFGRPMRIGIVYAVGAESVIGDNKGVKTLSEDGQIGIFKPGNDAQERISLLMEALELSLALRDGSKGDYILMDGSLSKKIGNKVDIQQFSDEELKLIRNVDLNGIISIKDERKMRDLLMLLNQFLVSKIIEEYDGNVLWISKVSRGRDLFGTDYPDITVLELFTEKRGFSKLIIKNIDIEKISEIPEIEVLRKMEYTTFYTRLDNGKRVIRVDIVGRVDEKIVKEIMDRLSGVSIKGYPEPLLKAHMDVRFSAMDREKIIKLVGSKLHKDIEWWPSQFY | 2 | 
NurA K202A (enzyme, Sulfolobus solfataricus P2) MIRKIYDKLVESHNEIKNQIYNIANYLKQEIQDKVNEYWNEYVINHEQSETCKFVAIDGGSFGRPMRIGIVYAVGAESVIGDNKGVKTLSEDGQIGIFKPGNDAQERISLLMEALELSLALRDGSKGDYILMDGSLSKKIGNKVDIQQFSDEELKLIRNVDLNGIISIKDERKMRDLLMLLNQFLVSKIIEEYDGNVLWISAVSRGRDLFGTDYPDITVLELFTEKRGFSKLIIKNIDIEKISEIPEIEVLRKMEYTTFYTRLDNGKRVIRVDIVGRVDEKIVKEIMDRLSGVSIKGYPFPLLKAHMDVRFSAMDREKIIKLVGSKLHKDIEWWPSQFY |  | binding result [1]: binds
NurA I295E/F300E double mutant (enzyme, Sulfolobus solfataricus P2) MIRKIYDKLVESHNEIKNQIYNIANYLKQEIQDKVNEYWNEYVINHEQSETCKFVAIDGGSFGRPMRIGIVYAVGAESVIGDNKGVKTLSEDGQIGIFKPGNDAQERISLLMEALELSLALRDGSKGDYILMDGSLSKKIGNKVDIQQFSDEELKLIRNVDLNGIISIKDERKMRDLLMLLNQFLVSKIIEEYDGNVLWISKVSRGRDLFGTDYPDITVLELFTEKRGFSKLIIKNIDIEKISEIPEIEVLRKMEYTTFYTRLDNGKRVIRVDIVGRVDEKIVKEIMDRLSGVSEKGYPEPLLKAHMDVRFSAMDREKIIKLVGSKLHKDIEWWPSQFY | 2 | 
NurA I295E (enzyme, Sulfolobus solfataricus P2) MIRKIYDKLVESHNEIKNQIYNIANYLKQEIQDKVNEYWNEYVINHEQSETCKFVAIDGGSFGRPMRIGIVYAVGAESVIGDNKGVKTLSEDGQIGIFKPGNDAQERISLLMEALELSLALRDGSKGDYILMDGSLSKKIGNKVDIQQFSDEELKLIRNVDLNGIISIKDERKMRDLLMLLNQFLVSKIIEEYDGNVLWISKVSRGRDLFGTDYPDITVLELFTEKRGFSKLIIKNIDIEKISEIPEIEVLRKMEYTTFYTRLDNGKRVIRVDIVGRVDEKIVKEIMDRLSGVSEKGYPFPLLKAHMDVRFSAMDREKIIKLVGSKLHKDIEWWPSQFY | 2 | 
B1 | 6 | 
